Test results reported in patent US20130287807A1, “COMPOUNDS FOR TREATING SYMPTOMS ASSOCIATED WITH PARKINSON'S DISEASE” (priority 2008, published 2013).
Entries after “also recorded” stand apart in the source; their conditions may differ. One block for each molecule: values may come before it.

Experiments:
[1] = system: full length Aβ and/or fragments thereof; test: Immune response elicited by using AD mimotopes: detection of Aβ; type: in vivo; parameters: key: +: All peptides listed in table 1 mount specific immune reactions against full length Aβ and/or fragments thereof
From the text: In the following Table further examples of the immune response elicited by using AD mimotopes are described. All peptides listed in table 1 mount specific immune reactions against full length Aβ and/or fragments thereof.

[2] = system: monoclonal antibody (DAEFRH-peptide-specific); test: Inhibition assay (ELISA): mimotope peptides compete with plate-bound original epitope DAEFRH for recognition by the monoclonal antibody; type: binding, Mice; conditions: for inhibition of binding of the monoclonal antibody to the original epitope: text to FIGS. 2-9; for Inhibitory capacity of mimotopes: summary Tables 1 and 2 (Examples 2, 3)
From the text: Mice are vaccinated with the 6mer peptide DAEFRH (natural N-terminal Aβ42 sequence) linked to the protein bovine serum albumin BSA (to make use of the hapten-carrier-effect), emulsified in CFA (first injection) and IFA (booster injections). DAEFRH-peptide-specific, antibody-producing hybridomas are detected by ELISA (DAEFRH-peptide-coated ELISA plates).
FIGS. 2 and 3 describe the results of inhibition assays performed with mimotope peptides included in and obtained from the 5 libraries (as described in WO 2004/062556). The mimotope peptides compete with the original epitope for recognition by the monoclonal antibody. Original epitope and mimotope peptides contain an additional C at the C-terminus for coupling to a protein carrier (if desired).
(§1) After blocking with PBS/BSA 1% (200 μl/well, 12 h, 4° C.), the plates are washed 3× times with PBS/Tween. Then, biotinylated monoclonal antibody (1:2000, 50 μl/well) and peptides (50 μl/well) at 50, 5, 0.5, 0.05, 0.005, and 0.0005 μg/ml are added for 20 min. at 37° C. The plates are washed 3× times with PBS/Tween and are incubated with horseradish peroxidase (HRP)-labeled streptavidin (100 μl/well, 30 min, RT). The plates are washed 5× times with PBS/Tween and are incubated with ABTS+H2O2(0.1% w/v, 10 to 45 min) and the reaction is stopped with citric acid followed by photometric evaluation (wavelength 405 nm).
as §1, with “different concentrations” for “50, 5, 0.5, 0.05, 0.005, and 0.0005 μg/ml”, “ABTS+H2O2 (0.1%” for “ABTS+H2O2(0.1%”
as §1, with “different concentrations” for “50, 5, 0.5, 0.05, 0.005, and 0.0005 μg/ml”

[3] = system: monoclonal antibody MV-003; test: In vitro binding assay (ELISA), BSA-coupled peptides, parental antibody MV-003; parameters: species or system BalbC mice; conditions: Table 1A; peptide-BSA on plate, compared to original epitope
Description: Peptides derived from Phage Display as well as variants thereof were coupled to BSA and bound to ELISA plates (1 μM; as indicated in the respective figures) and subsequently incubated with the monoclonal antibody that was used for the screening procedure to analyse binding capacity of identified peptides.
Legend to Table 1A: the binding capacity is coded by the following binding code: 1:X describes the dilution factor of the parental AB.

[4] = system: monoclonal antibody MV-003; test: In vitro inhibition assay (ELISA), MV-003 binding to original epitope; parameters: species or system BalbC mice; conditions: Table 2A; OD at 10 ug peptide compared to original peptide
Description: Different amounts of peptides (concentrations ranging from 10 μg to 0.08 μg; serial dilutions; for MV-002: concentrations ranging from 5 μg to 0.03 μg; serial dilutions), derived from Phage Display were incubated with the monoclonal antibody that was used for the screening procedure. Peptides diminishing subsequent binding of the antibody to the original epitope coated on ELISA plates were considered as inhibiting in this assay.
Legend to Table 2A: the inhibition capacity is coded by the following code: Weak inhibition means more peptide is required to lower AB binding than with the original epitope; strong inhibition means similar peptide amounts are required for mimotope and original epitope for lowering AB binding. Mimotopes are compared to the original peptide as standard. OD at 10 ug peptide used in the assay is used to calculate the competition capacity compared to original peptide.

[5] = target: monoclonal antibody MV-001; test: ELISA on peptide-BSA; code 3 = strong binding, OD halfmax 1:>20000
[6] = target: monoclonal antibody MV-001; test: inhibition ELISA, competitor coated original epitope p4371; code 2 = strong inhibition (as original epitope)
[7] = target: monoclonal antibody MV-004; test: inhibition ELISA, competitor coated original epitope p4372; code 1 = weaker than original epitope
[8] = target: monoclonal antibody MV-003; test: inhibition ELISA, competitor coated original epitope p4373; code 1 = weaker than original epitope
[9] = target: monoclonal antibody MV-003; test: ELISA on peptide-BSA; code 1 = weak binding, OD halfmax 1:<16000
[10] = target: DAEFRH-peptide-specific monoclonal antibody (Example 1); test: inhibition ELISA, competitor plate-bound DAEFRH-C-BSA
[11] = target: DAEFRH-peptide-specific monoclonal antibody (Example 1); test: inhibition ELISA, competitor plate-bound DAEFRH-C-BSA; inhibitory capacity
[12] = target: monoclonal antibody MV-004; test: ELISA on peptide-BSA; code 1 = weak binding, OD halfmax 1:<24000
[13] = competition ELISA, plate-bound DAEFRH-C-BSA

- Binding Capacity [3]: 3 (strong binding :>60000)
Molecule: IRWDQPC [p4756]
- Inhibition Capacity [4]: 1 (Weaker than original epitope (OD of 10 ug peptide below 12 times of original peptide))

- Binding Capacity [3]: 2 (medium binding :16-60000)
Molecule: IRWDGGC [p4793]
- Inhibition Capacity [4]: 1 (Weaker than original epitope (OD of 10 ug peptide below 12 times of original peptide))

- Binding Capacity [3]: 1 (weak binding :<16000)
Molecule: IRWDGC [p4792]
- Inhibition Capacity [4]: 1 (Weaker than original epitope (OD of 10 ug peptide below 12 times of original peptide))

- OD halfmax 1:X (dilution factor of the parental antibody at half-maximal OD) (dilutionfactor(1:x)) [5]: > 20000
- OD at 10 ug peptide relative to OD of original peptide (inhibition ELISA) [6]: < 2 fold
Molecule: CSEFKH [p4800]

- OD halfmax 1:X (dilution factor of the parental antibody at half-maximal OD) (dilutionfactor(1:x)) [5]: > 20000
- OD at 10 ug peptide relative to OD of original peptide (inhibition ELISA) [6]: < 2 fold
Molecule: CHEFRH [p4802]

- OD halfmax 1:X (dilution factor of the parental antibody at half-maximal OD) (dilutionfactor(1:x)) [5]: > 20000
- OD at 10 ug peptide relative to OD of original peptide (inhibition ELISA) [6]: < 2 fold
Molecule: HEFRHC [p4803]

- OD at 10 ug peptide relative to OD of original peptide (inhibition ELISA) [8]: 5 to 12 fold
- dilution factor of the parental antibody at OD halfmax (1:X) (dilutionfactor(1:x)) [9]: < 16000
Molecule: IRWDGC [p4792]

- OD at 10 ug peptide as multiple of OD with original peptide [7]: 2 to 5 fold
- OD halfmax 1:X (dilution factor of the parental antibody at half-maximal OD) (dilutionfactor(1:x)) [12]: < 24000
Molecule: EVWHRGC [p4788]

- OD at 10 ug peptide as multiple of OD with original peptide [7]: 2 to 5 fold
- OD halfmax 1:X (dilution factor of the parental antibody at half-maximal OD) (dilutionfactor(1:x)) [12]: < 24000
Molecule: ELWHRAC [p4786]

- OD at 10 ug peptide as multiple of OD with original peptide [7]: 2 to 5 fold
- OD halfmax 1:X (dilution factor of the parental antibody at half-maximal OD) (dilutionfactor(1:x)) [12]: < 24000
Molecule: EVWHRHC [p4789]

- OD at 10 ug peptide relative to OD of original peptide (inhibition ELISA) [8]: 5 to 12 fold
Molecule: IRWDGGC [p4793]

More lines, now with the values behind:

Molecule: GREFRN (GREFRNC) [Peptide 4003]
- Detection of Aβ [1]: +
- inhibition of binding of the monoclonal antibody to the original epitope [2, 13]: block epitope recognition; also recorded: only inhibitory at a relatively high concentration (10 μg/ml)
- Inhibitory capacity of mimotopes [2]: weak

Molecule: C[C@H](NC(=O)[C@@H](N)Cc1ccc(O)cc1)C(=O)N[C@@H](CCC(=O)O)C(=O)N[C@@H](Cc1ccccc1)C(=O)N[C@@H](CCCNC(=N)N)C(=O)NCC(=O)N[C@@H](CS)C(=O)O [Peptide 3005, YAEFRG]
- Detection of Aβ [1]: +
- inhibition of binding of the monoclonal antibody to the original epitope [2, 13]: block epitope recognition
- Inhibitory capacity of mimotopes [2]: intermediate

Molecule: C[C@H](NC(=O)[C@@H](N)CCC(=O)O)C(=O)N[C@@H](CCC(=O)O)C(=O)N[C@@H](Cc1ccccc1)C(=O)N[C@@H](CCCNC(=N)N)C(=O)NCC(=O)N[C@@H](CS)C(=O)O [Peptide 3006, EAEFRG]
- Detection of Aβ [1]: +
- inhibition of binding of the monoclonal antibody to the original epitope [2, 13]: block epitope recognition
- Inhibitory capacity of mimotopes [2]: strong

Molecule: IRWDTSLC [p4728]
- Binding Capacity [3]: 3 (strong binding :>60000)
- Inhibition Capacity [4]: 2 (strong inhibition (as original epitope; OD of 10 ug peptide below 5 times of original peptide))

Molecule: N=C(N)NCCC[C@H](NC(=O)[C@H](Cc1ccccc1)NC(=O)[C@H](CCC(=O)O)NC(=O)[C@H](Cc1ccc(O)cc1)NC(=O)[C@@H](N)CCC(=O)O)C(=O)NCC(=O)N[C@@H](CS)C(=O)O [Peptide 1239, EYEFRG]
- Detection of Aβ [1]: +
- IC50 (inhibition of monoclonal antibody recognition of DAEFRH) ([2]; competition ELISA, plate-bound DAEFRH-C-BSA, biotinylated mAb 1:2000): more than 0.5 μg/ml
- inhibition of binding of the monoclonal antibody to the original epitope [2, 13]: block epitope recognition
- Inhibitory capacity of mimotopes [2]: intermediate

Molecule: CC(C)C[C@H](NC(=O)[C@@H](N)CCC(=O)O)C(=O)N[C@@H](CCC(=O)O)C(=O)N[C@@H](Cc1ccccc1)C(=O)N[C@@H](CCCNC(=N)N)C(=O)NCC(=O)N[C@@H](CS)C(=O)O [Peptide 3008, ELEFRG]
- Detection of Aβ [1]: +
- Inhibitory capacity of mimotopes [2]: weak

Molecule: N=C(N)NCCC[C@H](NC(=O)[C@H](Cc1ccccc1)NC(=O)[C@H](CCC(=O)O)NC(=O)[C@H](Cc1ccc(O)cc1)NC(=O)[C@@H](N)CC(=O)O)C(=O)NCC(=O)N[C@@H](CS)C(=O)O [Peptide 3007, DYEFRG]
- Detection of Aβ [1]: +
- inhibition of binding of the monoclonal antibody to the original epitope [2, 13]: block epitope recognition
- Inhibitory capacity of mimotopes [2]: strong

Molecule: ELWHRYPC [p4420]
- OD at 10 ug peptide as multiple of OD with original peptide [7]: 2 to 5 fold

Molecule: TLHEFRHC [p4715]
- OD halfmax 1:X (dilution factor of the parental antibody at half-maximal OD) (dilutionfactor(1:x)) [5]: > 20000
- OD at 10 ug peptide relative to OD of original peptide (inhibition ELISA) [6]: < 2 fold

Molecule: IRYDAPLC [p4397]
- OD at 10 ug peptide relative to OD of original peptide (inhibition ELISA) [8]: 5 to 12 fold
- dilution factor of the parental antibody at OD halfmax (1:X) (dilutionfactor(1:x)) [9]: < 16000

Molecule: IRWDTPC [p4395]
- OD at 10 ug peptide relative to OD of original peptide (inhibition ELISA) [8]: 5 to 12 fold

Molecule: TEFRHKAC [p4753]
- OD halfmax 1:X (dilution factor of the parental antibody at half-maximal OD) (dilutionfactor(1:x)) [5]: > 20000
- OD at 10 ug peptide relative to OD of original peptide (inhibition ELISA) [6]: < 2 fold

Molecule: IRYDMAGC [p4399]
- dilution factor of the parental antibody at OD halfmax (1:X) (dilutionfactor(1:x)) [9]: < 16000

Molecule: DWELRIC [Peptide 3002]
- IC50 [10]: > 0.5 µg/mL
- IC50 [11]: > 0.5 µg/mL

Molecule: EVWHRHQC [p4417]
- OD at 10 ug peptide as multiple of OD with original peptide [7]: 2 to 5 fold

Molecule: DKELRIC [Peptide 3001]
- IC50 [10]: < 0.5 µg/mL
- IC50 [11]: < 0.5 µg/mL

Molecule: VRWDVYPC [p4396]
- dilution factor of the parental antibody at OD halfmax (1:X) (dilutionfactor(1:x)) [9]: < 16000
